Blank lines part the entries; values can stand above or below the binder they belong to.
B1: GST–CNOT1_(1088–1312) (domain or fragment)
chain: ENIQEKIAFIFNNLSQSNMTQKVEELKETVKEEFMPWVSQYLVMKRVSIEPNFHSLYSNFLDTLKNPEFNKMVLNETYRNIKVLLTSDKAAANFSDRSLLKNLGHWLGMITLAKNKPILHTDLDVKSLLLEAYVKGQQELLYVVPFVAKVLESSIRSVVFRPPNPWTMAIMNVLAELHQEHDLKLNLKFEIEVLCKNLALDINELKPGNLLKDKDRLKNLDEQLS
B3: maltose-binding protein (MBP)-tagged full-length human DDX6 (natural protein)
chain: MSTARTENPVIMGLSSQNGQLRGPVKPTGGPGGGGTQTQQQMNQLKNTNTINNGTQQQAQSMTTTIKPGDDWKKTLKLPPKDLRIKTSDVTSTKGNEFEDYCLKRELLMGIFEMGWEKPSPIQEESIPIALSGRDILARAKNGTGKSGAYLIPLLERLDLKKDNIQAMVIVPTRELALQVSQICIQVSKHMGGAKVMATTGGTNLRDDIMRLDDTVHVVIATPGRILDLIKKGVAKVDHVQMIVLDEADKLLSQDFVQIMEDIILTLPKNRQILLYSATFPLSVQKFMNSHLQKPYEINLMEELTLKGVTQYYAYVTERQKVHCLNTLFSRLQINQSIIFCNSSQRVELLAKKISQLGYSCFYIHAKMRQEHRNRVFHDFRNGLCRNLVCTDLFTRGIDIQAVNVVINFDFPKLAETYLHRIGRSGRFGHLGLAINLITYDDRFNLKSIEEQLGTEIKPIPSNIDKSLYVAEYHSEPVEDEKP

Tests used:
Test in all cases: pull-down
[1] = target: B3
[2] = target: T1, MBP–DDX6 N-term (residues 1–302) (human, UniProt P26196 1-302)
T1 sequence: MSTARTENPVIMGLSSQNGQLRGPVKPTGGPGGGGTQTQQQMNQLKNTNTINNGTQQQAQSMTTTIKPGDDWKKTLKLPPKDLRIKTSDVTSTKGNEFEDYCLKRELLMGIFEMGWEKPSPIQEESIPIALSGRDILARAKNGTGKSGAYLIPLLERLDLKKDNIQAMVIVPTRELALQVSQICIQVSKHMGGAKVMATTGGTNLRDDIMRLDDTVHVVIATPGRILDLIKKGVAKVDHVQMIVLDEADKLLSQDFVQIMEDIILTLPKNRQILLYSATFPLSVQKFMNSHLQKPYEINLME

[3] = target: B1
[4] = target: GST–CNOT1_(1075–1575) (human, UniProt A5YKK6-2 1075-1575)
Chain of GST–CNOT1_(1075–1575) (A5YKK6 1080-1580): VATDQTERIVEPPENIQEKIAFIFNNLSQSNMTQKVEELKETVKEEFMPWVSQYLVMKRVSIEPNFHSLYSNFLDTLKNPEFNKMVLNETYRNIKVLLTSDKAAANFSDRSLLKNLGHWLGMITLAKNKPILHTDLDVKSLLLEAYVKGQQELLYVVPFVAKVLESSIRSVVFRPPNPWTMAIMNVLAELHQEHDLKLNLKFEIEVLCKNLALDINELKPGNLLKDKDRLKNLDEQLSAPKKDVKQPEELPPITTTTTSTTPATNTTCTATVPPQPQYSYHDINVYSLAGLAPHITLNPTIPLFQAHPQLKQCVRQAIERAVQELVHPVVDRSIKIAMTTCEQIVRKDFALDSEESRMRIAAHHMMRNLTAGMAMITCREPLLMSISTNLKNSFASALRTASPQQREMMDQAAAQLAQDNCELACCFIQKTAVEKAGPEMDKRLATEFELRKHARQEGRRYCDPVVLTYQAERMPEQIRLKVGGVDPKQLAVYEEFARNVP

Binder: B1
binding result [1]: binds
binding result [2]: binds

binding result [3]: binds
B2: MBP–DDX6 C-term (residues 303–483) (domain or fragment)
chain: ELTLKGVTQYYAYVTERQKVHCLNTLFSRLQINQSIIFCNSSQRVELLAKKISQLGYSCFYIHAKMRQEHRNRVFHDFRNGLCRNLVCTDLFTRGIDIQAVNVVINFDFPKLAETYLHRIGRSGRFGHLGLAINLITYDDRFNLKSIEEQLGTEIKPIPSNIDKSLYVAEYHSEPVEDEKP

Binder: B3
binding result [4]: binds
